Here are results for 41 sequences from the nanobody polyreactivity screen of Harvey et al. (2022).

A short description of the data set: yeast display, Sf9 membrane polyspecificity reagent, FACS + sequencing; frameworks hold sequencing errors. In outline:
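Genes from sorted yeast were amplified by colony PCR, read by MiSeq 2 × 250 sequencing and filtered on CDR length. These cells carried a synthetic nanobody library in Saccharomyces cerevisiae BJ5465 and were sorted by FACS into low and high (top ~1%) gates on anti-HA and streptavidin fluorescence. Polyreactivity is labelled according to the gate of origin.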
Consider “QVQLVESGGGLVQAGGSLRLICAASGRICISNAMGWYRQAPGKERELVAAITWIGDRTYYADSVKGRFTISRDNAKNTVYLQMISLKPEDTAVYYCAADSYSPYTMDYWRQGTQVTVSS”, for which the “polyreactivity (PSR sort gate)” value is “high polyreactivity”.
Consider “QVQLVESGGGLVQAGGSLRLSCAASGRICPKKGMGWYRQAPWKERELVAAITSGTSTYYADSVKGRFTISRDNAKNTVYLQMNSLKPEDTAVYYCNAVHARYRCQGDYWGQGTQVTVSS”, for which the “polyreactivity (PSR sort gate)” value is on record as “low polyreactivity”.
For “QVQLVESGGGLVQAGGSLRLSCAASGILFGPYAKGWYRQAPGKERELVAVISGSGGSTNYADSVKGRFTISRDNGKYTVYLQMNSLKPEVTAVYYCAADSLSKVCYYYWGEGTQVTVSS” the value was “low polyreactivity”; for “QVQLVESGGGLVQAGGSLRLSCAASGSTFQFYAMGWYRHAPGKERELVAAIDGSDGDTYYADSVKGRFTISRDNAKNTVYLQMNSLKPEDTAVYYCNADRDALVGYDYDYWGQGTQVTVSS”, “low polyreactivity”.
For “QVQLVESGGGLVQAGGSLRLSCAASGSIFRNYAMGRSRQAPGKERELVAAITSGVRTNYADSVKGRFTISRDNAKNTVYLQMNSLKPEDTAVYYCNKGYNAVWRYRGDYWGQGTHVTVSS” the value was “high polyreactivity”; for “QVQLVESGGGLVQAGGSLRLSCAASGLTFVYNAMGWYRQAPGKERELVATISRGGSTYYADSVKGRFTISLDNAMNTVYLQMTSLKPEDTAVYYCNDDGYYDYDYGYWGQGTQVTVSS”, “low polyreactivity”; for “QVQLVESGGGLVQAGGSLRLSCAASGSTFYSYAMGWYRQAPGKERELVAAISSSAGSTYYADSVKGRFTISRDNAKNTVYLQMNSLKPEDTAVYYCAAPKRYGVRYGYWGQGTQVTVSS”, “high polyreactivity”.
Consider “QVQLVESGGGIVQAGGSLRLSCAASGRIFNRYAMGWYRQAPGKKWELVATISVSGANTYYADSVKGRFTISRDNAKNTVYLQMNSLKPEDTAVYSCNVKRGTIGGYYYWGQVTQVTVSS”, for which the “polyreactivity (PSR sort gate)” value was “high polyreactivity”.
For the sequence “QVQLGETGGGLVQAGGSLRLSCAATGSIFRYNAMGWYRQAPGKERELVAAISGRGTSTYYADSVKGRFTISRDNAKNTVYLQMNSLKPEDTAVYYCAAVYFSSFLVEYYYWGQGTQVTVSS”, the “polyreactivity (PSR sort gate)” value was “high polyreactivity”.
As for “QDQLVESGGGLVQAGGSLRLSCAASGSTFHWYVMGWYRQAPGKERELVAAISQSGGNTYYADSVKGRFTISRDNAKNTVYLQMNSLKPEVTAVFYCAADSVGVFNTTFFQFEYWGQGTQVTVSS”, the “polyreactivity (PSR sort gate)” value is recorded as “high polyreactivity”.
Regarding “QVQLVESGGGLVQAGGSLRLSCAATGSTFDDNVMGWYRQAHGKVRELVAAITTSGGSTFYADSVKWRFTISRDNAKNTVYLQMNSLKPEDTAVYYCNAVYFGLWGYYARRSYNYWGQGTQVTVSS”, the “polyreactivity (PSR sort gate)” value was “low polyreactivity”.
Regarding “QVQLVESGGGLVQAGGSLRLSCAASGFIFRHYAMGWYRQAPGKEREFVAAISYRGDSTYYADSVKGRFTISRDNAKNTVYLQMNSLKPEDTAVYYCAATYVSSAYYSYDYWGQGTQVTVSS”, the “polyreactivity (PSR sort gate)” value is “high polyreactivity”.
For “QVQLVESGGGLVQAGGSLRLSCAASGSIINFNAMGWYRQQPGKERELDARINQGGGSTYYADSVKGRFTISRDNAKNTVYLQMNSLKPEDTAVYYCAAVRYVLRSPARYGYWGQGTQVTVSS” the value was “low polyreactivity”.
Regarding “QVQLVESGGGLVQAGGSLRLSCAPSGFTFGLYAMGWYRQAPGKERELVAAISWSGGRTYYADSVKGRFTISRDNAKNTVYLQMNSLKPEDTAVYYCAAVNKARSEDYGYWGQGTQVTVSS”, the “polyreactivity (PSR sort gate)” value is given as “high polyreactivity”.
Turning to “QVQLVESVGGLVQAGGSLRLSCAASGFIFYQNAMGWYRQAPGKERELVAAISTTGSRTYYADSVKGRFTISRDNAKNTVYLQMNSLKPEDTAVYYCNAPRRVNYDYWGQGTQVTVSS”, the “polyreactivity (PSR sort gate)” value is listed as “high polyreactivity”.
In the case of “QVQLVESGGGLVQAGGSLRLSCAATGFTFRTYAMGWYRQAPGKERELVAAITVSGGTYYADSVKGRFTITRDNAKNSFYFQMISLKPEDTAVYYCTAKRFRTGFDYWGQGTQVTVSS”, the “polyreactivity (PSR sort gate)” value is reported as “low polyreactivity”.
On to “QVQLVESGGGLVQAGGSLRLSCAASGRILYVNTMGWYRQAPGKERELVAGITSRVGSTYYADSVKGRFTISRDNAKNTVYLQMNSLKPEDTAVYYCNARDKFYVPSLYAYDYWGQGTQVTVSS”, for which the “polyreactivity (PSR sort gate)” value is on record as “low polyreactivity”.
As for “QVQLVESGGGLVQAGGSLRLSCAASGFTFRTNAMGWYRQAPGKERELVAAISTGARTYYADSVKGRFTISRDNAKNTVYLQMNSLKPEDTAVYYCNKVLRRFLSRYDYWGQGTQVTVSS”, the “polyreactivity (PSR sort gate)” value is reported as “high polyreactivity”.
Regarding “QVQIVESGRGLVQAGGSLRLSCAASGSTFKYYAMGWYIQAPGKERELVAAISWTGGSTYYADSVKGRFTISRDNAKNTVYLQMNSLKPEDTAVYYCNALGHVQGYDYWGQGTQVTVSS”, the “polyreactivity (PSR sort gate)” value is “high polyreactivity”.
In the case of “QVQLVESGGGLVQAGGSLRLSCAASGSTFLYYAMGWYRPAPGKESELVAGISASGGSTYYADSVKGRFTISRDNAKITVYLQMNSLKPEDTAVYYCARYAGFPYTQCDYWGQGTQVTVSS”, the “polyreactivity (PSR sort gate)” value is recorded as “high polyreactivity”.
On to “QVQLVESGGGLVQAGGSLRLSCAASGRIFRRNTMGWSRPAPGTERELVAAITSRGGSTYYADSVKGRFTISRDNAKNTVYLQMNSLKPADTAVYYCNTRVVPEIYDYWGQGTQVTVSS”, for which the “polyreactivity (PSR sort gate)” value is “high polyreactivity”.
For “QVQLVESGGGLVQAGGSLRLSCAASGSIFTPYAMGWYRQAPGKERELVAAISRSGGSTYYADSVKGRFTISRDKAKNTVYLQMNRLKPADSAVYYCAADVQTLITLGQFDYWGQGTQVTVSS” the value was “low polyreactivity”; for “QLQLVESGGGLVQAGRRLRLTCAASGSIFQGNVMGWYRQAPGKERELVAAITWSGGRTYYADSVKGRFTISRDHAKNTVYLQMNSMNPDDTAVYYCNAVIGRELDYWGQGTKVTVSS”, “high polyreactivity”; for “QVQLVESGGGLVQAGGSLRLSCAASASIFASNAMGLYRQAPGKERELVAAINSADSTNYADSVKGRFRISRDNAKNTVYLQMNRLKPEDPAVFYCARGLEERYDYWGLGTQVTVSS”, “low polyreactivity”.
Regarding “QVQLVESGGGLVQAGGSLRLSCAASGRTFTVYPMGWYRQAPVKEREFVAAITERGGSTYYADSVKGRFTISRDNAKNTVYLQMNSLKPEDTAVYYCAAVYYWRPGWYVRFDYWGQGTQVTVSS”, the “polyreactivity (PSR sort gate)” value is listed as “low polyreactivity”.
With “QVQLVESGGGLVQAGGILRLSCAASGRILDGYAMGWYRQAPGKERELVAAISSRGGRTYYADSVKGRFTISRDNAKNTVYLQMNSLKPEDTAVYYCAATRYGTYEYNYWGQGTQVTVSS”, the “polyreactivity (PSR sort gate)” value was “high polyreactivity”.
On to “QVQLVESGGGLVQAGGSLRLSCAASGFYYYAMGWYRQAPGKERELVAVITYSGGSTYYADSVKGRFTISRDNAKNTVYLQMNSVKPEDTAVYYCAADYRPGYDYWGQGTQVTVSS”, for which the “polyreactivity (PSR sort gate)” value was “low polyreactivity”.
For “QVQLVESGGGLVQAGGSLRLSCAASGSTNVVNAMGRYRQPPGKERELVAAITYSGGSTYYADSVKGRFTISRDNAKNTVYLQQNSLKPEDTAVYYCNTTLRDSRQYVDRAPYTRYDYWGQGTQVTVSS”, the “polyreactivity (PSR sort gate)” value is “low polyreactivity”.
Turning to “QEQLQGSGGGLAQAGDSLRLSCAASGTIFSEYNNGLVSPGAGQRTRTCCRYWCWGNTYYADSAKGRFTTIRDNAKNTVYLQKNSLKPEDTAVYYCAFNRPYPSRHIYRGQGTQVTVSS”, the “polyreactivity (PSR sort gate)” value is listed as “high polyreactivity”.
For “QVQLVESGGGLVQAGGSLRLSCAASGRIFKYYSMGWYRQAPWKERELVAAITRGGSTNYADSVKGRFTISRDNEKNTVYLQMNSLKPEDTAVYYCAVDTVRNHRMDYWGQGTQVTVSS” the value was “low polyreactivity”; for “QVQLVESGGGLVQAGGSLRLSCAASGYIFVRNAMGWYRQAPGKERELVAAISGSGGSTYYADSVKGRFTISRDNAKNTVYLQMNSLKPEDTAVYYCAADYATVTWRGIAYDYWGQGTQVTVSS”, “low polyreactivity”.
For the sequence “QVQLVESGGGLVQAGGSLRLSCAASGFTLYGYAMGWYRQAPGKERELVAGIRYSGGRTYYADSVKGRFTISRDNAKNTVYLQMNSLKPEDTAVYYCAADGGYWRGTGYEYWGQGTQVTVSS”, the “polyreactivity (PSR sort gate)” value is listed as “high polyreactivity”.
Take “QVQLVESGGGLVQAGGSLRLSCAASGRIFRYYAMGWYRQAPWKERELVAVINWSGGSTYYADSVKGRFTISRDNAKNTVYLLMNSLKPEDTAVYYCNVYSVYPQFNYWGQGTQVTVSS”: the “polyreactivity (PSR sort gate)” value is reported as “high polyreactivity”.
For “QVQLVESGGGLVQAGGSLRLSCAASGRTFEGNALGWYRQAPGKERELVAAITSGGRTNYADSVKGRFTISRDNAKNTVYLQMNSLKPEDTAVYYCAVETRDRSTYFPGQAYDYWGQGTQVTVSS”, the “polyreactivity (PSR sort gate)” value is “low polyreactivity”.
As for “QVQLVESGGGLVQAGGSLRLSCAASGNTFAYYAMGWYRQAPGKERELVAAISGSGGRTYYADSVKGRFTISRDNAKNTVYFQMNILKPEDTAVYYCNARPAGGLGYGYWGQGTQVTVSS”, the “polyreactivity (PSR sort gate)” value is listed as “high polyreactivity”.
For “QVQLVESGGGLVQAGGSLRLSCAASGYIYAYYAMGWYRQAPGKERELVAAITGRGDTTYYADSVKGRFTISRDNAKNTVYLQMNSLIPEDTAVYYCNAEKPTYYYVPGKYDVDYWGQGTQVTVSS” the value was “low polyreactivity”; for “QVQLVESGGGLVQAGGSLRLICAASGSTFLGYAMGWYRQAPGKERELVAAISSGGGTYADSVKGRFTISRDNAKNSVYLQMNSLKPEDTAVYYCNADYSTPYRMDYWGQGTQVTVSS”, “low polyreactivity”; for “QVQLVESGGGLVQAGGSLRLSCAASGSTILVNAMGWYRQAPGKERELVAAISRGGSTYYADSVKGRFTISRDNAKNTVYLQMTSLKPEDTAVSYCAARGVYVKYYYWGQGTQVTVSS”, “high polyreactivity”.
Turning to “QVQLVESGAGLVQAGGSLRLTCAASGSNFYYYAMGWYRQAPGKERELVAAINGGDTYYADSVKGRFTISRDNAKNTVYLQMNSLKPEDTAVFYCAAEGVTVEWDYDYWGQGTQVTVSS”, the “polyreactivity (PSR sort gate)” value is on record as “low polyreactivity”.
As to “QVQLVESGGGLVQAGGSLRLSCAASGLTFSKYAMGWYRQAPGKERELVAAINRSDGGTYYADSVKGRFTISRDNAKNTVYLQMNSLKPEDTAVYYCNAVVLYGWYGRRYSSRLDYWGQGTQVTVSS”, the “polyreactivity (PSR sort gate)” value was “high polyreactivity”.
As for “QVQLVESGGGLVQAGGSLRLSCAASGRTFVRNAMGWYRQAPGKERELVAAISRGGRTNYADSVKGRFTISRDNAKNTVYLQMNSLKPEDTPVYYCATGAGYYSDYDYWGQVTQVTVSS”, the “polyreactivity (PSR sort gate)” value is reported as “high polyreactivity”.
